Here are results for 18 sequences from a protein production outcome set (Wang et al. 2014).

The nature of this data set: label from the status in PepcDB records.
Consider “MNTPQFNKIAVLVATLLISALFLTMIRQFLVTILLAGIFTGLAYPLFSRFITLTRGHRSLSASMTLVIFFMMVFLPLLAVFTVVILQAVSLSSTAIPLIREQLRDPEGFLRMLSSLPFYKDIESYSDLILEKAAEILGNLGSSVLSSFSAITWTAIYDLVLFIIFWYTMFFLLRDGHELLERIKYYLPLNESDQRRLFDRFVSVTRASLKGSLIIAVIQGTLAGLAFYVAGINQAVFWGAIMAMLSLLPLIGSPIIWVPAVIILALSGNYAQAIGLFLFCSIIVGQIDNVLRPILVGRDTSMHELFIFFGTLGGIGMFGLPGFIIGPVVAALFVTVWDIYGETFNESLIERRSGGGQAAGSDGSAP”, for which the protein production entry is on record as “failed”. In the case of “MNTRHFSQLPKPYLAYPKVIQGLVFKKPKGSKILPQVEYVVDSFQIDQQHLRDYNEVCGFQNDGFIPAIYLAVLSQSLQMHMMTTEAFPFPVLGLVHIRNQIKQIRKIAVNETLTLSCQFGELKPHDKGLQFDFITTAKVGNDIVMEGITTYLSRQKTEQVSAEKPKENKTPDYQVQQVWDVAENTGRRYAKTSGDYNLIHIHAITAKAFGFKQAIAHGMWSKAKALANIVLPDAYEADVWFKLPMYLPSKVEFLTAEQSKETDFLIRNAKSQKPHVSGVVKAL”, the protein production result is on record as “failed”. As to “MNTSFIKTLMTTNAGFAALALRIPTAIIFIAHGAQKLFGSFGGYGLEGTGQWMASIGLEPGYQLALLAGSAEFFGGIALLIGLLVRPAALMLSVTMVVAIFSVHFANGLFMTNNGYEFALALLAVSFSLMFSGAGKLSLDNLLAEKLA”, the protein production result is given as “failed”. The entry for “MNTSNRRMGLFYVITGATCWGIGGTVAKKLFQEYQIDVNWLVTTRLLTAGMLLLMLQLFRKDRSQVIEVWKHKASAGQLLIFGLLGMLAVQYTYMASIQHGNAAVATLLQYLSPVIVIIYTLLRKQTVLTKQDIITVVLALVGCFFLLTNGSMSQLSVPAAAVVWGVLSGFAAAFYTLYAVGLLNKFDSLVVVGWAMIIGGFALGFIHPPWQLDFQRLTAEAYAYILFVILFGTMIAFWFFIKSLESLSPKETSLLGSLEPLSAVVTTVVWLKAPFGSFQWIGAICIIGITLILALHKEPSMESEKSILKIRNHANRDI” is “failed”; for “MNTYAQESKLRLKTKIGADGRCVIEDNFFTPPFKLMAPFYPKDDLAEIMLLAVSPGMMRGDAQDVQLNIGPNCKLRITSQSFEKIHNTEDGFASRDMHIVVGENAFLDFAPFPLIPFENAHFKGNTTISLRSSSQLLYSEIIVAGRVARNELFKFNRLHTKISILQDEKPIYYDNTILDPKTTDLNNMCMFDGYTHYLNLVLVNCPIELSGVRECIEESEGVDGAVSETASSHLCVKALAKGSEPLLHLREKIARLVTQTTTQKV” it is “failed”; for “MNVLFTSVPQEDVPFYQEALKDLSLKIYTTDVSKVPENELKKAELISVFVYDKLTEELLSKMPRLKLIHTRSVGFDHIDLDYCKKKGILVTHIPAYSPESVAEHTFAMILTLVKRLKRIEDRVKKLNFSQDSEILARELNRLTLGVIGTGRIGSRVAMYGLAFGMKVLCYDVVKREDLKEKGCVYTSLDELLKESDVISLHVPYTKETHHMINEERISLMKDGVYLINTARGKVVDTDALYRAYQRGKFSGLGLDVFEDEEILILKKYTEGKATDKNLKILELACKDNVIITPHIAYYTDKSLERIREETVKVVKAFVKGDLEQIKGNFVVGPS” it is “not failed”. Then “MNVLRPALLTLACMLASPVMSDDLPSLGDASSSIVSPEQEFQLGRAWLSMLRNQVDAISDPQLKDFVESSVYRLAETSDLQDHRLAFILIRDAQINAFAAPGGVIGVNGGLLLNAQTEGEYAAVLAHELGHLIQRHFARGIEAQQRMQLPVMAAMLAGIVAAAAGAGDAGIAAIAGTQAAAIQNQLRFSRQNEQEADRVGVTNMVRAGYDPRSMPNMFERLARQYRYDGKPPEFLLTHPVTESRIADTRNRAEQYPQGGKEDSLRYQQMRARTQLLFEETPGMAGKRFRAMLNDNPKLDAARYGLAISQTRIGQLNDARDNLRQLLAKAPNDVAYNLAQVELDITANRLPDADQRLKKMLAQFPSSYPLKQVRADLMLKMGKPQESEKILDDLSKARPLDPDVWNRLAEVRSLTNNAIGVHQARAEYLSLTGDYQAAIEQLDFAKRRAGGNFQLAARLDARQQEIRQQEKMVKEMFR”, with “failed”. The entry for “MNVMQENQIKLIEHIKQAVVQAVGLEETEVPEILLEVPKDKKHGDYSTNIAMQLARVAKKAPRQIAESIVPELKKDTKLIKEVEIAGPGFINFYLDNAYLTDLVPVILTEDKKYG” is “not failed”. Turning to “MNVSHISAVSYYFARYIQEVLEVPVGIVVSTWGGSKIEAWMSRESIKPFSSIDLSILDNDAEVKNPTATPCVLYNGKIAPLTNFAVRGFLWYQGESNRDNADLYQSLMPAFVADLRAKWGRGELPFYFVQIAPFDYEGADGTSAARLREVQLQNMKDIPNSGMVTTMDVGHPVFIHPVDKETVGNRLAYWALAQTYGMKGFGYAPPVYKSMEIQENKIYINFYNAQRGLSPMWTSLKGFEIAGEDKVFYPAFAEIETTTARLAVSSDKVSHPVAVRYAYKNYVEASIFSIHGIPAAPFRTDNWLEHHHHHH”, the protein production result is listed as “failed”. “MNVTPWEVEGVIDYSKLIEEFGMQPFSEVLPEIDNPHILMRRGAIFGHRDYWRIIEAMQKKEPWAVMSGFMPSGLPHFGHKMTMDEIVWHQSAGGKAFVAIADMEAHSVRGLSWEKTRELGMLYIKSIIALGLREDAVIYFQSKSSHVKDLAFELSAEVNFSELRAIYGFNSDTSLAKMFVTAIQAADILHPQLSDFGGPKPVVVPVGADQDPHMRLTRDLAARISIFSFEPVEGGVRVRSRKGAEYLSSLRDLEFDKKIYEEHMDIFGEAEEIERAVRKIEVEIGGFAFIPPSSTYHRFTTGLTGGKMSSSKPESYISLLDPPEEGAKKVMKAFTGGRATAEEQRRLGGEPDRCVVFELYSFHLIDSDEELNQIEAECREGRLLCGKCKKMAAELVKSFLKEHQEKMEAVDLSNYTIIG”: the protein production result is “failed”. Turning to “MNVWLLGRGELRRRHDDVLQLERAFLTDRTGLHFVNARSSEDLLALAESRRAEQQWPVLDAEWISPVGTDTCDDLVWQNLESTLDGRPDTFYSTAGFEAGNTLSGTGELAPGEAFLAYRFWRPVRVYAVQLRAFQADFHPGRPVYPFQVARVGVGCSLQAGMSLSYGADASAPGTSCNYRCFCTTEQQTLVFDDPMVGVYLVICLKGFPQQQLTDRLHYAAVSGIRVFGEPISSPALENELSCLISRGFILDGRDAARWLDLRSAQEHAAPMHIPEDEVI”, the protein production result is recorded as “not failed”. As for “MNVYDLIAEHYSGLFPLETEKLEFIQHLCPLPGRLCDAGCATGELVMGLYQKGYDICGLDLNEKMIGIAEKKASCIRKTGELMFYHADIADIMQFGKFKGVLCFGNTLPHLRDEEALRRFFGSVYRSLEEHGIFIVEVLNYDRILDDKKMDFKDKETKDFIFKRNYDFLPGGNIRFTIEFTDKQRSTVGSDFTVLHPLKRQMLLALFKQTGFKSVSAYSDYSFTESRAEDYAVVYTANK”, the protein production result is listed as “failed”. Then “MNWKDKVKTTFYSCDRFVRFVIQHFIQDDCTYIASALAFTSLLAVVPLMSVGLAIFSSFPVFQGLAEPVQNFIFDNFVPATGKIVQSYLQQFTSQVSKLSIWGIVFLIFTALLVMFTIERAMNKIWRVSSSRHGVSAFLLYWAIISLAPVLLGLSLAASSYLFSMPILADHRAPYTILHYSPFFLSLIGFTFLYVVVPNCPVKIRHAFWGGLVAAILFESAKHAFAYYLIRYNTYALLYGAFATVPIFFIWVYWVWIITLLGAEISYAFSVHHQRRGGKSLDGFSHALLWLHQLWLAQQHGKGLSFNDLVDASKQPFAVDVDEMINALIYHELIHATADGHYMLSRDLSHVTLYDLTQLLPYRLPTHLELQYSKASLAEQWRAAFKRHNEELKKSLDINLEELFKKTGTVIK”, with “failed”; and “MNWRRYNGRKKLAIIVPIYNVADYLKDCLNSLLKQGVPEKELQIILVDEGSTDNSAQIAQKFVEKYPNFFELHQFENAGLGAARNRGTRLARARFITYVDSDDIVAPNSYEYMLGILERTGSQIITGNVHRFNSKKEWLNNIHARSHLGDFENTSLKEHPELIWDSTSWNKIFCLDFLKENNLYFPEGVLYEDIPMINPAFAAAKSIDIVKRMVYLWRAREGSITESSTDAKAVLDRITITEIALAGLKKYNAPNEILDILYLKSLNLGIISMLRKEKYEYISLERKQELFNSLKEYLEKFPSDTLYQAKFDKLIYFDKVLKAKTQEEFDEITSKYLKNEIGFSGYWNDAGQYVLKSDYSDLEKIVTSDDLEIHPKIEEVVFEDDSLKIQGYFYAKYSDMSAPENVKILGISALSDDGNTINEIVGEKRNFENQRITAKFGYNLNHFVKDGADFNYDYSGYELKIPLNHLEFETTNSLAFVLEVEIDGLKFEVPIKNPISGDKPRPKVGLSNAQVFSVSYKTDWSLVLSLKERSVEELYFSEDGKELRIKGNATKIALKSGKTKLPLKLVGGRVMISQAVQEKIKSFDKSVFHWWQFITYVNGKEKSIYYSGFPKNFQNDSNLEILFSNNGVATLGISYLYPLVEKLQVEENVLKLAFSLKGWMTEATKVQIVADPTLSMIWETEKMNENLYQLSLPLTLDGFSDKEWLNFHVRLTFNDGYQTNELLRWGKKEFALKNEWVSANGIGWFFRSVEQKEHGAFAIKRTADRVFQEKVGNLEYVLQEKYQNWLKEPVLNDYIMMSSFWGRNNHFNDNPEALYRYIEKNYPNMTTIIVLKDAIRSYPEYPNAKIVSYGTADYWYYLARSKYFVNNVNFTEPPRIKREEQIEIQTMHGTPLKTLGFDVLGDWKDSTYNEVLRKNGNWDYLTVPSDWVANYALKAFRVSPQIIKSGYPRNDKLFIDYKM”, with “failed”; and “MNYDRYYTCDLVNGEGVRVTLFVTGCAHACDGCHNRSTWDRKSGRPFTPEAREELLRHCASHDGLSLSGGDPLLPANRDEILALCRMFKQRYPQKNIWLWTGYDYEEVRELEILQFVDVLIDGRYRQDLPTSKPWRGSDNQRLIRLGAGSGAAVAAVGAADVIAFEA”, with “failed”.

Consider “MNYFLMIILGVLGAESRFAIELTIDNSAYPYGTLIINMIGCFLLGFMYYFFVEAKKTINQLVAVVSTGFVGSFTTFSTFELEIFKMFQLDQYLKAISYFFVTMLSGLLFVFLGYCLSKLIIIKRKENK”, for which the protein production result is “failed”. The entry for “MNYKLTLHPGSNPVEEFTSIPHGVTSLDLSLNNLYSISTVELIQAFANTPASVTSLNLSGNSLGFKNSDELVQILAAIPANVTSLNLSGNFLSYKSSDELVKTLAAIPFTITVLDLGWNDFSSKSSSEFKQAFSNLPASITSLNLRGNDLGIKSSDELIQILAAIPANVNSLNLRGNNLASKNCAELAKFLASIPASVTSLDLSANLLGLKSYAELAYIFSSIPNHVVSLNLCLNCLHGPSLENLKLLKDSLKHLQTVYLDYDIVKNMSKEQCKALGAAFPNIQKIILVDKNGKEIHPSHSIPISNLIRELSGKADVPSLEHHHHHH” is “not failed”. With “MNYPAENFTKRFLSSLAQVMLQSNTVTGFLFLVGIGLNSPTMLLGCILAILSSLAVAKLFQYDSNCVTKGFYGFNAALVGIAVFSLLPLSFISLVLVLLGGAFSALLMHVMITKIPSIPALTTPFILSTWTIVLIIDSVGLADPMSGSFTGSISPTLIDSLHGVLRGVGQVMLQDSWLSGAVFCCALLFSSYKTAVWAILGSLIGLLVATTFGFSQEKAMMGLYGFNGCLVAIALVDRYPNKYWLIILAILFSVLFTRVFEMIAIPAFTAPFVMTTWLMIGIVKLKADFD”, the protein production result is given as “failed”.
